Holding throughout (assay): cryo-EM structure
For assay [1], the target named is T1, RPC8 (human (endogenous in HeLa), UniProt Q9Y535 1-204).
T1 sequence: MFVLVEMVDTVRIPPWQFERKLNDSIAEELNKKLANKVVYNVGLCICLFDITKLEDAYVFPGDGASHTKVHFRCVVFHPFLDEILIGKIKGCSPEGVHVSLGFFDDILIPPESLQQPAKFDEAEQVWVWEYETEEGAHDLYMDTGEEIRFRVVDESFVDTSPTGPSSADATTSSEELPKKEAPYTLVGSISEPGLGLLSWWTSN

Assay [2] addresses T2, RPC5 (from HeLa) (human (endogenous in HeLa), UniProt Q9NVU0 1-708).
T2 sequence: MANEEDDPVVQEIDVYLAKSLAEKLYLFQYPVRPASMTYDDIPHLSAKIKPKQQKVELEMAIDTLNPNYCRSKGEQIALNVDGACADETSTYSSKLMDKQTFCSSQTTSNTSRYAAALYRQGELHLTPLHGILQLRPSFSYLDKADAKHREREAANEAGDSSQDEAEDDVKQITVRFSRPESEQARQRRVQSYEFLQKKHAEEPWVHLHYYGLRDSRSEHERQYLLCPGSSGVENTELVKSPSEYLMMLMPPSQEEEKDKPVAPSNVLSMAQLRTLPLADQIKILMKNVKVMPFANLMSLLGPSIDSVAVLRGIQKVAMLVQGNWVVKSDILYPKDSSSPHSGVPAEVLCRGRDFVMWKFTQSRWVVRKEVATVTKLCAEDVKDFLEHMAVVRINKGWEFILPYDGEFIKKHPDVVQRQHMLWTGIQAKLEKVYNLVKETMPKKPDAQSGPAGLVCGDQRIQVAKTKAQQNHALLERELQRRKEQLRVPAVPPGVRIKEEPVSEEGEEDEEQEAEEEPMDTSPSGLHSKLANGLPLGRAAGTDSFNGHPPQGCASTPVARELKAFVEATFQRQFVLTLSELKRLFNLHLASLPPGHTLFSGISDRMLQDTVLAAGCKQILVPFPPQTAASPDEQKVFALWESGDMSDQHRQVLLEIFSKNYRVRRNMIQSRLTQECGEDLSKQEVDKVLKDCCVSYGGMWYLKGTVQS

Assay [3] concerns the target RPABC1 (human (endogenous in HeLa), UniProt P19388 1-210).

The values below come from publication doi:10.1101/2020.06.29.177279 (bioRxiv, 2020).

B1: RPC9 (natural protein)
chain: not shown
Consider B1, for which the binding result in assay [1] is “binds”.

B2: RPC4 (from HeLa) (natural protein)
chain: MSEGNAAGEPSTPGGPRPLLTGARGLIGRRPAPPLTPGRLPSIRSRDLTLGGVKKKTFTPNIISRKIKEEPKEEVTVKKEKRERDRDRQREGHGRGRGRPEVIQSHSIFEQGPAEMMKKKGNWDKTVDVSDMGPSHIINIKKEKRETDEETKQILRMLEKDDFLDDPGLRNDTRNMPVQLPLAHSGWLFKEENDEPDVKPWLAGPKEEDMEVDIPAVKVKEEPRDEEEEAKMKAPPKAARKTPGLPKDVSVAELLRELSLTKEEELLFLQLPDTLPGQPPTQDIKPIKTEVQGEDGQVVLIKQEKDREAKLAENACTLADLTEGQVGKLLIRKSGRVQLLLGKVTLDVTMGTACSFLQELVSVGLGDSRTGEMTVLGHVKHKLVCSPDFESLLDHKHR
For B2, the binding result in assay [2] is reported as “binds”.

B3: RPC1, largest subunit of human Pol III (from HeLa) (natural protein)
chain: MVKEQFRETDVAKKISHICFGMKSPEEMRQQAHIQVVSKNLYSQDNQHAPLLYGVLDHRMGTSEKDRPCETCGKNLADCLGHYGYIDLELPCFHVGYFRAVIGILQMICKTCCHIMLSQEEKKQFLDYLKRPGLTYLQKRGLKKKISDKCRKKNICHHCGAFNGTVKKCGLLKIIHEKYKTNKKVVDPIVSNFLQSFETAIEHNKEVEPLLGRAQENLNPLVVLNLFKRIPAEDVPLLLMNPEAGKPSDLILTRLLVPPLCIRPSVVSDLKSGTNEDDLTMKLTEIIFLNDVIKKHRISGAKTQMIMEDWDFLQLQCALYINSELSGIPLNMAPKKWTRGFVQRLKGKQGRFRGNLSGKRVDFSGRTVISPDPNLRIDEVAVPVHVAKILTFPEKVNKANINFLRKLVQNGPEVHPGANFIQQRHTQMKRFLKYGNREKMAQELKYGDIVERHLIDGDVVLFNRQPSLHKLSIMAHLARVKPHRTFRFNECVCTPYNADFDGDEMNLHLPQTEEAKAEALVLMGTKANLVTPRNGEPLIAAIQDFLTGAYLLTLKDTFFDRAKACQIIASILVGKDEKIKVRLPPPTILKPVTLWTGKQIFSVILRPSDDNPVRANLRTKGKQYCGKGEDLCANDSYVTIQNSELMSGSMDKGTLGSGSKNNIFYILLRDWGQNEAADAMSRLARLAPVYLSNRGFSIGIGDVTPGQGLLKAKYELLNAGYKKCDEYIEALNTGKLQQQPGCTAEETLEALILKELSVIRDHAGSACLRELDKSNSPLTMALCGSKGSFINISQMIACVGQQAISGSRVPDGFENRSLPHFEKHSKLPAAKGFVANSFYSGLTPTEFFFHTMAGREGLVDTAVKTAETGYMQRRLVKSLEDLCSQYDLTVRSSTGDIIQFIYGGDGLDPAAMEGKDEPLEFKRVLDNIKAVFPCPSEPALSKNELILTTESIMKKSEFLCCQDSFLQEIKKFIKGVSEKIKKTRDKYGINDNGTTEPRVLYQLDRITPTQVEKFLETCRDKYMRAQMEPGSAVGALCAQSIGEPGTQMTLKTFHFAGVASMNITLGVPRIKEIINASKAISTPIITAQLDKDDDADYARLVKGRIEKTLLGEISEYIEEVFLPDDCFILVKLSLERIRLLRLEVNAETVRYSICTSKLRVKPGDVAVHGEAVVCVTPRENSKSSMYYVLQFLKEDLPKVVVQGIPEVSRAVIHIDEQSGKEKYKLLVEGDNLRAVMATHGVKGTRTTSNNTYEVEKTLGIEAARTTIINEIQYTMVNHGMSIDRRHVMLLSDLMTYKGEVLGITRFGLAKMKESVLMLASFEKTADHLFDAAYFGQKDSVCGVSECIIMGIPMNIGTGLFKLLHKADRDPNPPKRPLIFDTNEFHIPLVT
In the case of B3, the binding result in assay [3] is “binds”.
